From the Human Domainome abundance scans (Beltran et al. 2025)
± gives the uncertainty stated by the source.

B1: Cold shock protein CspB, residues 1 to 66; numbered along this chain, P41016 (parent)
chain: MQRGKVKWFNNEKGYGFIEVEGGSDVFVHFTAIQGEGFKTLEEGQEVSFEIVQGNRGPQAANVVKL
B2: Nucleosome-remodeling factor subunit BPTF, residues 2862 to 2918; numbered along this chain, Q12830 (parent)
chain: TKKDTKLYCICKTPYDESKFYIGCDRCQNWYHGRCVGILQSEAELIDEYVCPQCQST

Variants of: B1
Assay: abundance fitness (aPCA) (normalised: wild type 0, dead -1); higher = more abundant; growth selection in yeast, the domain comes from the species named
Settings: Bacillus caldolyticus

Abundance fitness: each site, then its substitutions
K65: R 0.004 ± 0.044; M -0.078 ± 0.048; L -0.052 ± 0.037; W -0.145 ± 0.055; Q -0.023 ± 0.06; N -0.051 ± 0.057; E -0.03 ± 0.084; F -0.098 ± 0.05; H 0.014 ± 0.06; G 0.023 ± 0.074; V -0.015 ± 0.056; A 0.002 ± 0.051; I 0.04 ± 0.076; T -0.003 ± 0.055; Y -0.13 ± 0.047; D -0.019 ± 0.082; S -0.015 ± 0.035; P 0.025 ± 0.064; C -0.035 ± 0.049
L66: R -0.018 ± 0.042; Q 0.021 ± 0.057; F 0.033 ± 0.086; Y -0.054 ± 0.12; D -0.101 ± 0.18; H -0.214 ± 0.11; V 0.025 ± 0.063; G 0.005 ± 0.08; M -0.018 ± 0.057; E -0.01 ± 0.12; S -0.016 ± 0.04; A -0.055 ± 0.065; T -0.023 ± 0.057; C -0.067 ± 0.084; I -0.044 ± 0.083; W 0.004 ± 0.05; P -0.022 ± 0.043
V64: Y -0.054 ± 0.059; W -0.042 ± 0.053; N -0.02 ± 0.087; C 0.032 ± 0.07; T -0.012 ± 0.067; L -0.015 ± 0.038; E -0.003 ± 0.056; H -0.057 ± 0.099; D -0.057 ± 0.072; R -0.003 ± 0.035; G -0.042 ± 0.035; M -0.064 ± 0.066; F 0.011 ± 0.046; S -0.019 ± 0.04; K -0.029 ± 0.068; Q 0.032 ± 0.088; A -0.03 ± 0.044; P -0.731 ± 0.089
A61: V -0.06 ± 0.06; S 0.008 ± 0.04; W -0.003 ± 0.058; Q 0.012 ± 0.047; P -0.828 ± 0.062; T -0.072 ± 0.039; R 0.015 ± 0.035; Y 0.015 ± 0.076
V63: M -0.283 ± 0.05; E -0.782 ± 0.077; C 0.009 ± 0.083; L -0.018 ± 0.03; Y -0.798 ± 0.082; N -0.528 ± 0.073; R -0.71 ± 0.042; A -0.205 ± 0.044; H -0.771 ± 0.1; Q -1.13 ± 0.18; K -0.721 ± 0.071; W -0.774 ± 0.07; F -1.01 ± 0.085; G -0.873 ± 0.062; T -0.432 ± 0.053; I -0.126 ± 0.054; P -0.643 ± 0.052
N62: Q 0.152 ± 0.43; I -0.299 ± 0.39; D 0.189 ± 0.42

Variants of: B2
Assay: as above
Settings: Homo sapiens

Abundance fitness of substitutions, site by site:
K6: M -0.013 ± 0.078; P 0.034 ± 0.061; Q -0.032 ± 0.081; E -0.042 ± 0.15; L -0.085 ± 0.055; A 0.069 ± 0.072; T 0.008 ± 0.061; G -0.071 ± 0.081; I -0.08 ± 0.06; S -0.035 ± 0.057; N -0.045 ± 0.058; R -0.086 ± 0.071; H -0.057 ± 0.057; V -0.161 ± 0.07; F -0.278 ± 0.067; D -0.062 ± 0.084; C -0.161 ± 0.089
C11: E -0.638 ± 0.15; H -1.01 ± 0.2; S -0.934 ± 0.093; L -0.828 ± 0.092; D -0.759 ± 0.11; F -1.12 ± 0.19; W -1.09 ± 0.19; V -1.03 ± 0.1; I -0.968 ± 0.18; Q -0.947 ± 0.17; G -0.771 ± 0.079; P -0.802 ± 0.12; M -0.803 ± 0.14; A -0.934 ± 0.094; R -0.818 ± 0.1; K -0.822 ± 0.15; Y -0.997 ± 0.1; N -0.857 ± 0.21
C9: G -0.801 ± 0.078; R -0.879 ± 0.09; H -0.838 ± 0.077; Q -0.846 ± 0.099; I -1.05 ± 0.094; L -0.815 ± 0.065; D -0.827 ± 0.1; T -0.851 ± 0.081; A -0.877 ± 0.081; F -0.916 ± 0.071; K -0.706 ± 0.17; E -0.971 ± 0.22; P -0.716 ± 0.068; N -0.932 ± 0.096; V -0.986 ± 0.084
T1: N 0.018 ± 0.22; I -0.132 ± 0.19; P -0.264 ± 0.18; K -0.199 ± 0.16; E -0.185 ± 0.28; R -0.281 ± 0.15; M -0.13 ± 0.19; W -0.152 ± 0.19; S -0.104 ± 0.091; G -0.147 ± 0.15; H -0.277 ± 0.26; D -0.071 ± 0.34; L -0.256 ± 0.18; A -0.54 ± 0.29; V -0.177 ± 0.17
D16: N -0.181 ± 0.12; G -0.564 ± 0.1; A -0.441 ± 0.067; I -0.624 ± 0.14; V -0.315 ± 0.064; P -0.622 ± 0.1; Q -0.182 ± 0.1; C -0.449 ± 0.14; M -0.194 ± 0.11; H -0.55 ± 0.093; K -0.452 ± 0.11; Y -0.757 ± 0.13; W -0.778 ± 0.18; S -0.362 ± 0.072; L -0.555 ± 0.069; T -0.366 ± 0.076; R -0.515 ± 0.077
Y8: F -0.037 ± 0.15; I -0.166 ± 0.12; A 0.065 ± 0.09; V -0.081 ± 0.11; D 0.072 ± 0.13; W -0.164 ± 0.11; P -0.298 ± 0.1; S -0.014 ± 0.078; L -0.043 ± 0.081; E 0.166 ± 0.12; G 0.051 ± 0.12; M 0.015 ± 0.1; T -0.041 ± 0.097; K 0.065 ± 0.15; R -0.105 ± 0.078; C -0.028 ± 0.12; Q 0.054 ± 0.14
Y15: I -0.073 ± 0.1; P -0.313 ± 0.082; C -0.505 ± 0.13; A -0.366 ± 0.081; Q -0.665 ± 0.14; E -0.489 ± 0.1; H -0.106 ± 0.12; V -0.275 ± 0.074; S -0.539 ± 0.073; M -0.005 ± 0.073; T -0.303 ± 0.075; D -0.438 ± 0.11; K -0.131 ± 0.091; N -0.593 ± 0.2; G -0.492 ± 0.076; F -0.02 ± 0.1; W -0.118 ± 0.094
E17: A -0.042 ± 0.076; C -0.288 ± 0.084; D -0.013 ± 0.1
L7: W -0.13 ± 0.076; T -0.012 ± 0.062; G -0.005 ± 0.073; P -0.071 ± 0.068; C -0.058 ± 0.07; K -0.219 ± 0.084; F -0.089 ± 0.073; R -0.18 ± 0.062; I -0.179 ± 0.092; V -0.076 ± 0.072; A -0.014 ± 0.071; H 0.018 ± 0.067; Y -0.022 ± 0.066; S -0.046 ± 0.057; D 0.023 ± 0.1; N 0.037 ± 0.079
T13: P -0.674 ± 0.12; N -0.297 ± 0.074; Q -0.116 ± 0.17; C -0.577 ± 0.19; S -0.116 ± 0.071; G -0.567 ± 0.46; K -0.044 ± 0.11; L -0.292 ± 0.093; A -0.357 ± 0.18; H -0.518 ± 0.14; D -0.54 ± 0.19; R -0.22 ± 0.12; I -0.482 ± 0.08; M -0.176 ± 0.14
P14: T -0.206 ± 0.083; N -0.191 ± 0.14; V -0.229 ± 0.087; L -0.212 ± 0.085; D -0.581 ± 0.12; E -0.163 ± 0.11; S -0.161 ± 0.074; C -0.367 ± 0.11; W -0.447 ± 0.088; Q -0.263 ± 0.092; A 0.008 ± 0.08; M -0.096 ± 0.095; H -0.275 ± 0.11; Y -0.131 ± 0.13; G -0.42 ± 0.075; I -0.216 ± 0.16; K -0.096 ± 0.1
K12: T -0.106 ± 0.074; V -0.808 ± 0.094; C -0.104 ± 0.067; F -0.253 ± 0.084; I -0.869 ± 0.14; S -0.119 ± 0.058; W -0.56 ± 0.088; H -0.061 ± 0.097; Y -0.134 ± 0.1; L -0.121 ± 0.062; D -0.2 ± 0.12; N -0.233 ± 0.12; P -0.907 ± 0.12; E -0.025 ± 0.15; R -0.07 ± 0.062; M -0.167 ± 0.095; Q 0.006 ± 0.086
K3: C -0.697 ± 0.15; N -0.379 ± 0.15; G -0.148 ± 0.071; M -0.152 ± 0.11; A -0.146 ± 0.073; L -0.111 ± 0.073; R -0.131 ± 0.068; E 0.014 ± 0.12; V -0.009 ± 0.073; W -0.629 ± 0.12; D -0.097 ± 0.16; S 0.036 ± 0.078; F -0.041 ± 0.11; T 0.013 ± 0.084; H -0.424 ± 0.16; Y -0.273 ± 0.13; I -0.057 ± 0.097; Q -0.032 ± 0.14
T5: K 0.05 ± 0.086; Q -0.052 ± 0.1; D 0.028 ± 0.08; I -0.017 ± 0.062; W -0.238 ± 0.11; L -0.092 ± 0.063; Y -0.016 ± 0.066; V -0.282 ± 0.06; A -0.213 ± 0.07; F -0.076 ± 0.068; E 0.064 ± 0.12; C 0.002 ± 0.077; M 0.024 ± 0.094; N 0.016 ± 0.063; H -0.055 ± 0.066; S -0.071 ± 0.057; G -0.155 ± 0.073
I10: R -0.368 ± 0.072; E -0.129 ± 0.089; T -0.249 ± 0.099; N -0.446 ± 0.18; G -0.387 ± 0.073; C -0.245 ± 0.1; H -0.084 ± 0.17; V -0.218 ± 0.071; M -0.252 ± 0.11; Y -0.234 ± 0.11; D -0.278 ± 0.11; S -0.387 ± 0.084; P -0.395 ± 0.096; Q -0.472 ± 0.1; F -0.307 ± 0.11; W -0.398 ± 0.096; K -0.218 ± 0.13
D4: F -0.226 ± 0.077; A -0.18 ± 0.062; L -0.238 ± 0.059; C -0.316 ± 0.087; T -0.124 ± 0.066; M -0.088 ± 0.11; H -0.195 ± 0.06; S -0.008 ± 0.055; R -0.446 ± 0.062; I -0.179 ± 0.065; P -0.112 ± 0.074; N -0.087 ± 0.066; Y -0.154 ± 0.073; G -0.163 ± 0.063; E -0.005 ± 0.1; V -0.215 ± 0.061; K -0.005 ± 0.086
